In the PETadex activity labels:

Substrate: BHET
Conditions: 120 h

| Protein | plate clearing |
| --- | --- |
| unnamed (protein) MIIRYISRLALLAGAMTLSASLWAAPVPCRDCSTGYQRGDVPSTAELESRRGPYSVRTIRVSRLVNGFGGGTIYYSTESGGGQGIIAVVPGYLSLETTIQWWGPRLASWGFTVITMDTNTIYDQPTSRASQLSAALNYVINKGNDSRSPLYGLVDPNRTGVIGWSMGGGGALELSTRRNIQATIAQAPWHVGAGTFAQISTPTMILACQLDAVAPTAIHAKAFYNVIPRTTSKAYFEVRAGSHFCANTGYPNTDIIGRNGIAWMKRFIDNDTRYNQFLCGPNFESDFRISKYRDTCNY | not clears the plate |
| unnamed (protein) MNKTILEKIAVGTGALLFSVSAFSFTPSPTPDPTPDPEPCQGECDFTRGPNPTSSYMEANAGPYTVRTSSVSGSVSGFGGGTVHYPTNTSGEMGAIAIVPGFLAGESSISWWGPRLASHGFVVITIATNSVFDQPGSRSTQLGRALDYLVSQSNSSNSPISGMVDASRLGAMGWSMGGGGVLRLASGSRLVAAIPLAPWNTGSNDFDQIQTPTMIMACENDSTARVGTHASPFYNSIPGSTDKAYLEINGGSHSCANGGGSNGGLLGKYGVSWMKLFMDEDTRYSQFLCGPNHAANGAISEYRDTCNY | not clears the plate |
| unnamed (protein) MKTTALRIKGLSIAAAIALSTLAPAAFSQTSPPTSASLNATSGPLSVSTASVFLPVGFGGGTIYYPTVAGKYGVIAISPGFTATESSIAWLGRRIATHGFVVITLNTNTTLDQPDSRATQLMAALRYVLNSSGSAVRARIDPTRLAVAGHSMGGGGSLIAARDNPTLKASYPMTPWNISSNFSTVRVPTMIIGADGDTIAPVASHARPFYASLPSSTLKAYGELNGATHFAPNTTNTPIGRYAVTWMKRFVDGDTRYSPFLCGAQHTSYATSRIFDRYNQNCPY | not clears the plate |
| unnamed (protein) MFGCYGCTDGSIVSAPISTVGYSDIKVTFTRSSSGLDLGEAGIAEWSANGSTYTVIESSRSVSGAATFNLPSGAAGQSGLRVRFRVDASLSSEYYTVDTITVEGTSSGGGGGGGVQIGPDPTTSTLESSSGGSFSVQYQSVSSLSTSGFDGGRLYYPTTSGQYGGIVLCPGYTASSSSLAWWGERLASWGFIVLIIDTNSAYDQPSSRATQLMAGVAWLKARNNDSGHALYGKLRESDIAVGGHSMGGGGTLIALRDNPSLKTGFAMTPWNSSTNFSGITQPTFILGCESDSVAPNSSHSIPFYNSISSSVKKVYAEVDGASHFCPNSSDAKMGKYGIAWYKRFLDGDTRFQPWLCPSATGGN | not clears the plate |
| unnamed (protein) MNRSILERFVVGTSALLFSISAYSFTPSPTPEPEPEPCQGVCDFTRGPNPTSSYLEASRGPYSVNTVDVSRSVSGFGGGTIHYPTNTTGKMGAIAIVPGFLAAESSIAWWGPRLASHGFVVITIATNSTFDQPASRESQLSRALDYVINQSNSSGSPIAGKVDSTRVGAMGWSMGGGGTLKIASGSRLSAAIPLAPWHTGSNDFDQIDTPTMIIACENDTTAPVGRHASPFYNRISNATDKAYLEINNGGHSCANGGGTNAGLLGKYGVSWMKRFIDKDTRYSQFLCGPNHASNSAISEYRDTCSY | not clears the plate |
| unnamed (protein) MMAAAGSGGTSGGVSGSTGSAGAAGGATGAAGGGASSTGGFVREDAPTEMSTRAAKGKYTVKSYTSGFSGTGKDFLAGTLYYPTDADPPFASVAVVPGFTALQNSIMDWGPFLASHGIVTMTIDTLTTSDPPAQRADELMGALKSIAGENTRDGSPIKGQLDTTRQCVSGWSMGGGGTLIAASMHPELKCAVSFAAWQPTGGAMNKVPALMFEGTTDPLAAGMSQGFYDQTPDSTPKMIFEVAGASHDVANSPHNSMGIIGEYGLSWFKVYLEGDMRYKQFLLLP | not clears the plate |
| unnamed (protein) MMNSVMDRFTIAASAVLFSASAWSFTPTPDPDPTPPPQPCQVDCDFTRGPNPTSSYLEANSGPYSVGTVRVSSSVNGFGGGTIHYPTNTTGKMGAIAVVPGFTAGESSIAWWGPRLASHGFVVITIATNSGFDQPASRATQLSNALDYVISQSNSSSSAISGMVDASRLGAMGWSMGGGGALRLASGARLSAAIPLAPWHSGSNPFDQIETPTMIIACESDSTAPVGSHASPFYNRIPASTDKAYLEINNGDHRCANGGGSNGGLLGKYGVSWMKRFIDRDTRYQQFLCGPNHEANTAISEYRDTCAY | clears the plate (z > 3 vs empty vector) |
| unnamed (protein) MQVRLSSLCRTALVALGLAWAAATAHAQTIDDASDISLAIGPAPTSSALNALNGPFAVSTSIVVLPVGFGGGTIYYPTQAGKYGVIALCPGFTATSTSLAWLARRLASWGFVVVNMNTVTVFDFPSSRATEMRVALRYATNWSSATVRARIDPNRQAVAGHSMGGGGALIAAVRNPELKAAYALMPWSPTYSPTSMKVPTMLVAADADTIAPAALMVRPYYKLIPATVPKAYAELRWGNHFSPILVNTPIGRYGAAWMKRFVDGDTRYQDFLCGAAHQYYANALVFASYLKNCPY | not clears the plate |
